The values that follow are results of earlier work, collected in paper PMC6238587.

The target in this series is PDI (Homo sapiens) (UniProt P07237). The series can be described thus: surface plasmon resonance. As to conditions: cited from earlier work. In general terms: Surface plasmon resonance follows binding to a sensor surface in real time, without labels.
Sequence of PDI (Homo sapiens) (P07237 18-508): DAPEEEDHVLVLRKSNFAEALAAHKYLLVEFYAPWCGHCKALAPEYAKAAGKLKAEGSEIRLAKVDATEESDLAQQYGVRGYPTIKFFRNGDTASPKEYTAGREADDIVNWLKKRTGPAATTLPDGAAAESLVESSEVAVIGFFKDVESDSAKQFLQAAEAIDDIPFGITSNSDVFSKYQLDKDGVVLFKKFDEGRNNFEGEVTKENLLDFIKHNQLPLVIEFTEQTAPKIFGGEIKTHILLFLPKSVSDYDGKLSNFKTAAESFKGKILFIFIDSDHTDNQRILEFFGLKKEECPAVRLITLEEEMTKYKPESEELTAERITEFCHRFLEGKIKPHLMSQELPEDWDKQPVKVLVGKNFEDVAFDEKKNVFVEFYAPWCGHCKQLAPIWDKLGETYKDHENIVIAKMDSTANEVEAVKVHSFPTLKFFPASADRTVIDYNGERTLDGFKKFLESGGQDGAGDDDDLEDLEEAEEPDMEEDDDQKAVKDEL

Consider Ero1α (from UniProt Q96HE7), for which the dissociation constant Kd (as a rule, the concentration at which binding is half-saturated) was 2100 nM.
